Measured values taken from article PMC5414365, “Activin A more prominently regulates muscle mass in primates than does GDF8” (Nature Communications, 2017).

T1: activin AC (human, UniProt P08476 311-426; P55103 237-352)
T1 sequence (looked up) 1: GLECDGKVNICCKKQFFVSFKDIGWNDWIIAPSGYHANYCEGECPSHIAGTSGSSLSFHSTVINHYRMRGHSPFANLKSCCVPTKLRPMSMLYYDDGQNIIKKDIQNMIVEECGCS
T1 sequence (looked up) 2: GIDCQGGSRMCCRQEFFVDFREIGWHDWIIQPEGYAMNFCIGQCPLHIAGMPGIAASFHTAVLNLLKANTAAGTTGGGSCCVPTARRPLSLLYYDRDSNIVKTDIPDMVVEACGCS

T2: Growth and differentiation factor 8 (GDF8) (human, UniProt O14793 267-375)
T2 sequence (looked up): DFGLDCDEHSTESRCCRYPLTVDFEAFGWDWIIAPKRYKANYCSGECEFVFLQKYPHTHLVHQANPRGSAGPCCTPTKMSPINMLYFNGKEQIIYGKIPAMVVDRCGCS

T3: activin AB (human, UniProt P08476 311-426; P09529 293-407)
T3 sequence (looked up) 1: T1 sequence (looked up) 1
T3 sequence (looked up) 2: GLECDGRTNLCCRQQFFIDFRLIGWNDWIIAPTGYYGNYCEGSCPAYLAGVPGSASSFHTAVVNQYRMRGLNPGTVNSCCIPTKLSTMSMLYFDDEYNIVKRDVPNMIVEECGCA

B1: activin B (ligand, human, UniProt P09529 293-407, looked up)
chain: T3 sequence (looked up) 2
notes: human activin B: inhibin beta B chain, mature growth factor domain; source: bought: R&D Systems
B2: ActRIIB.hFc (soluble form of activin receptor type IIB fused to human IgG Fc fragment) (Fc fusion, UniProt Q13705 19-137, looked up)
chain: SGRGEAETRECIYYNANWELERTNQSGLERCEGEQDKRLHCYASWRNSSGTIELVKKGCWLDDFNCYDRQECVATEENPQVYFCCCEGNFCNERFTHLPEAGGPEVTYEPPPTAPTLLT
notes: activin receptor type IIB (ACVR2B; ActRIIB), soluble form; also called hActRIIB.hFc; ACVR2B; source: made at Regeneron
B3: activin A (ligand, human, UniProt P08476 311-426, looked up)
chain: T1 sequence (looked up) 1
notes: human activin A: inhibin beta A chain, mature growth factor domain; also called Act A; source: bought: R&D Systems
B4: GDF11 (ligand, human, UniProt O95390 299-407, looked up)
chain: NLGLDCDEHSSESRCCRYPLTVDFEAFGWDWIIAPKRYKANYCSGQCEYMFMQKYPHTHLVQQANPRGSAGPCCTPTKMSPINMLYFNDKQQIIYGKIPGMVVDRCGCS
notes: human GDF11, mature growth factor domain; source: bought: R&D Systems

Columns and labels:
[1] = target: B2; assay: SPR; ligands at 40 to 0.78 nM injected over captured ActRIIB.hFc surface; Biacore T200, carboxymethyl dextran-coated CM4 sensor chip, 25 °C; conditions: both partners purified
GDF11 = target: B4; assay: cell-based or functional assay
activin AC [2] = target: T1, activin AC; assay: cell-based or functional assay
activin A = target: B3; assay: cell-based or functional assay
[3] = target: T2, Growth and differentiation factor 8 …; assay: cell-based or functional assay
activin B = target: B1; assay: cell-based or functional assay
activin AB [4] = target: T3, activin AB; assay: cell-based or functional assay
activin AC [5] = target: T1, activin AC; assay: SPR; ligands at 40 to 0.78 nM injected over captured ActRIIB.hFc surface; Biacore T200, carboxymethyl dextran-coated CM4 sensor chip, 25 °C; conditions: both partners purified
activin AB [6] = target: T3, activin AB; assay: as above; conditions: both partners purified

Binder: B1
- Kd [1]: 0.0064 nM

Binder: B2
- IC50 of ActRIIB.hFc against GDF11-stimulated Smad2/3 activity (CAGAx12-luc reporter, A204 cells; fixed ligand concentration) (GDF11): 0.21 nM
- IC50 of ActRIIB.hFc against activin AC-stimulated Smad2/3 activity (CAGAx12-luc reporter, A204 cells; fixed ligand concentration) (activin AC [2]): 0.085 nM
- IC50 of ActRIIB.hFc against activin A-stimulated Smad2/3 activity (CAGAx12-luc reporter, A204 cells; fixed ligand concentration) (activin A): 0.63 nM
- IC50 of ActRIIB.hFc against GDF8-stimulated Smad2/3 activity (CAGAx12-luc reporter, A204 cells; fixed ligand concentration) [3]: 0.3 nM
- IC50 of ActRIIB.hFc against activin B-stimulated Smad2/3 activity (CAGAx12-luc reporter, A204 cells; fixed ligand concentration) (activin B): 0.55 nM
- IC50 of ActRIIB.hFc against activin AB-stimulated Smad2/3 activity (CAGAx12-luc reporter, A204 cells; fixed ligand concentration) (activin AB [4]): 0.39 nM
- Kd (activin AC [5]): 5.9 nM
- Kd (activin AB [6]): 0.0044 nM

Binder: B3
- Kd [1]: < 0.0035 nM

Binder: B4
- Kd [1]: 0.014 nM
